From patent US20240117011A1 (US Dept. of Health and Human Services, published 2024)

How the values were obtained:
SARS-CoV-2 NTD = SARS-CoV-2 NTD (SARS-CoV-2, UniProt P0DTC2 14-305); assay: ELISA
[1] = target: full-length SARS-CoV-2 spike, WA-1 / Wuhan-1 (S wt) (SARS-CoV-2, UniProt P0DTC2 14-1273); assay: cell-based or functional assay
SARS-CoV-2 RBD = SARS-CoV-2 RBD (SARS-CoV-2, UniProt P0DTC2 319-541); assay: ELISA
SARS-CoV-2 S1 = target: T1, SARS-CoV-2 S1 (SARS-CoV-2, UniProt P0DTC2 14-681); assay: ELISA
T1 construct: range 1-681

Binder | binding result (SARS-CoV-2 NTD) | pseudotyped virus neutralization IC50 [1] [µg/mL] | pseudotyped virus neutralization IC80 [1] [µg/mL] | binding result (SARS-CoV-2 RBD) | binding result (SARS-CoV-2 S1)
A23-80.1 (antibody, V domains shown) VH: QVQLVQSGAEVKKPGASVKVSCKASGYTFTSNGVTWVRQAPGQGLEWMGWISTYNGDTNYAQKLQGRVSMTTDTSTRTVYMELRSLRSDDTAVYYCARVGDAYCSGGSCYHFDYWGQGTLVTVSS VL: EIVMTQSPATLSVSPGERATLSCRASQSVSTNLAWYQQKPGQAPRLLIYGASTRATGIPARFSGSGSGTEFTLTISSLQSEDFALYYCQQYDNWPPEFTFGPGTKVDIK | no binding | 0.321 | – | – | –
A20-29.1 (antibody, V domains shown) VH: EVQLVESGGGLVQPGRSLRLSCAASGFTFDDYAMHWVRQTPGKGLEWVSGISWNSGDIDYADSVKGRFTISRDNAKNSLYLQMNSLRTEDTALYYCTKGWFGEFFGAGSICDYWGQGTLVTVSS VL: EIVMTQSPATLSVSPGERATLSCRASQSVSNNLAWYQQKPGQAPRLLIYGASTRATGIPARFSGSGSGTEFTLTISSLQSEDFAVYYCQQYNNWPLFGQGTKVEIK | – | 0.348 | 1.36 | – | –
A23-113.1 (antibody, V domains shown) VH: QVHLEESGGAVVQPGRSLRLSCAASGFTFSSYGMHWVRQAPGKGLEWVAVISHDGSYKYYADSVKGRFTISRDNSKDTLYLQTNSLRAEDTAMYYCAKSYGYWMAYFDYWGQGTLVTVSS VL: DIQMTQSPSSLSASVGDRVTITCRASQDISNYLAWYQQKPGKVPKLLIYAASTLQSGVPSRFSGSGSGTDFTLTISSLQPEDVATYYCQKYNSPWHTFGGGTKVEIK | no binding | 0.393 | 7.81 | – | –
A23-97.1 (antibody, V domains shown) VH: QVQLVESGGGVVQPGGSLRLSCAASGFTFSSFGMHWVRQAPGKGLEWVAFIRYDGSNKYYADSVKGRFTISRDNSKNTLYLQMNSLRAEDTAVYYCAKTELYYYDSSGPLGWGQGTLVTVSS VL: not shown | no binding | 0.484 | 5.28 | – | –
A20-36.1 (antibody, V domains shown) VH: QVQLVESGGGVVQPGRSLRLSCAASGFIFSSYGVHWVRQAPGKGLEWVAVIWHDESNKDYADSVKGRFTISRDNSKNTVYLQMNSLRAEDTAMYYCARDGYDFLTGAYELDYWGQGTLVTVSS VL: SYELTQPPSVSVSPGQTARITCSGDALPKQYAYWYQQKPGQAPVVVIYKDSERPSGIPERFSGSSSGTTVTLTISGVQAEDEADYYCQSADSSGTWVFGGGTKLTVL | no binding | 1.39 | 3.76 | no binding | –
A20-9.1 (antibody, V domains shown) VH: QVQLVESGGGVVQPGRSLRLSCAASGFTFSSYGMHWVRQAPGKGLEWVAFISYDGSNKYYADSVKGRFTISRDNSKNTLYLQMNSLRAEDTAVYYCAKDYWSVAAGTSWFDPWGQGTLVSVSS VL: SYELTQPPSVSVSPGQTARITCSGDALPKQYAYWYQQKPGQAPVVVIYKDSERPSGIPERFSGSSSGTTVTLTISGVQAEDEADYYCQSADSSGTWVFGGGTKLTVL | no binding | 1.21 | – | no binding | –
A23-105.1 (antibody, V domains shown) VH: QVQLVESGGGVVQPGRSLRLSCAASGFTFSNYAIHWVRQAPGKGLEWVAVISYDGSNKYYADSVKGRFTISRDNSKNTLYLEMNSLRAEDMAVYYCARVGPYQYDSSAAFDIWGQGTMVTVSS VL: not shown | no binding | 0.0889 | 0.228 | – | –
A19-61.1 (antibody, V domains shown) VH: QVQLVESGGGVVQPGRSLRLSCAASGFTFSSYAFHWVRQAPGKGLEWVAVISYDGSNQYYADSVKGRFTISRDNSKNTLYLQMNSLRADDTAVYYCARDLAIAVAGTWHYYNGMDVWGQGTTVTVSS VL: DIQMTQSPSSVSASVGDRVIITCRASQGISSWLAWYQQKPGKAPKVLIYDASSLQSGVPSRFSGSGYGTDFTLTISSLQPEDSATYYCQQAKSFPITFGQGTRLEIK | no binding | 0.0709 | 0.163 | – | –
A19-30.1 (antibody, V domains shown) VH: QVQLVESGGGVVQPGRSLRLSCAASGFTFSNYGMHWVRQAPGKGLEWLAVISYDGSNKYYADSVKGRFTISRDNSKNTLFLQMNSLRAEDTAVYYCAKESQFGELFEALDYWGQGTLVTVSS VL: SYELTQPPSVSVSPGQTARITCSGDALPRKYAFWYQQKSGQAPVLVISEDSKRPSGIPERFSGSSSGTMATLTISGAQVEDEADYYCYSTDSSGNHRVFGGGTKLTVL | no binding | – | – | binds | binds
A19-1.1 (antibody, V domains shown) VH: QVQLVESGGGVVQPGRSLRLSCAASGFTFTNYAMHWVRQAPGKGLEWVAVISNDGSDKYYADSVKGRFTISRDNSKSTVYLQMSSLRPEDTAVYFCARDPPQVHWSLDYWGQGTLVTVSS VL: QSALTQPPSASGSPGQSVTISCTGTSSDVGDYNYVSWYQHHPGKAPKLIIYDVSKRPSGVPDRFSGSKSGDTASLTVSGLQAEDEADYYCSSYAGNNNAVFGTGTKVTVL | no binding | 0.126 | 0.53 | – | –
A19-82.1 (antibody, V domains shown) VH: QVQLVESGGGVVQPGRSLRLSCVVSGLIFSTYDMHWVRQAPGKGLEWVAVISYDGSYKHYADSVKGRFTISRDSSKNTLYLQMNSLRPEDTAVYYCAKGEGVVAGTGKFDYWGQGTLVTVSS VL: SYVLTQPPSVSVAPGQTARITCGGNNIGSKSVHWYQQKPGQAPVLVVYDDSDRPSGIPERFSGSNSGNTATLTISRVEAGDEADYYCQVWDGSGDPWVFGGGTKLTVL | no binding | 0.72 | 5.93 | – | –
A19-46.1 (antibody, V domains shown) VH: QVQLVESGGGVVQPGRSLRLSCAASGFTLSSYGMHWVRQAPGKGLEWVAVISYDGSNKYYVDSVKGRFTISRDNSKNTLYLQMNSLRAEDTAVYYCARGWAYWELLPDYYYGMDVWGQGTTVTVSS VL: QTVVTQEPSFSVSPGGTVTLTCGLSSGSVSTAYFPSWYQQTPGQAPRTLIYGTNTRSSGVPDRFSGSILGNKAALTITGAQADDESDYYCVLYMGRGIVVFGGGTKLTVL | – | 0.0398 | 0.129 | – | –
